These results are taken from article PMC6289460.

The series deals with ArdK (intact) (Escherichia coli A56-1S (plasmid pA56-1S)). Description: BLI. As to conditions: EMSA: 20 mM Tris pH 7.5, 100 mM KCl, 2 mM DTT, 10 mM EDTA, 50 mg/L poly(dI-dC), 20 C, 20 min, 3 fmol probe, 30 pmol protein; BLI: 1x kinetics buffer (Pall …). A general note: In EMSA bound probe runs differently from free probe, usually more slowly.

One may read the Kd as the equilibrium constant for the complex coming apart.

On to 107 bp probe upstream of blaIMP-6, for which the Kd came out at 29.3 nM. That is a double-digit nanomolar value.
